Test results published in patent publication US20060234294A1 (JAPAN SCIENCE AND TECHNOLOGY AGENCY, published 2006).

Columns and labels:
Assay in all cases: co-immunoprecipitation from 293T cells: anti-HA IP, anti-V5 Western blot
[1] = molecular target: T1, Tiam1 with HA tag at its C terminus (PCI Tiam1-HA) (mouse, UniProt Q60610 1-1591, limits assumed)
T1 construct: Expressed in 293T cells from the PCI vector; also called mouse Tiam1

[2] = molecular target: T2, DOCK2 SH3 mutant F63E-HA (mouse, UniProt Q8C3J5 1-1828)
T2 construct: Phenylalanine at position 63 of DOCK2 is substituted to glutamic acid; HA tag at the C terminus; Expressed in 293T cells; also called PcDNA F63E-HA

[3] = molecular target: T3, DOCK2 SH3 mutant P60E-HA (mouse, UniProt Q8C3J5 1-1828)
T3 construct: Proline at position 60 of DOCK2 is substituted to glutamic acid; HA tag at the C terminus; Expressed in 293T cells; also called PcDNA P60E-HA

[4] = molecular target: T4, DOCK2 SH3 mutant G32E-HA (mouse, UniProt Q8C3J5 1-1828)
T4 construct: Glycine at position 32 of DOCK2 is substituted to glutamic acid; HA tag at the C terminus; Expressed in 293T cells; also called PcDNA G32E-HA

[5] = molecular target: T5, DOCK2ΔN-HA (amino acid residue 505-1828 of DOCK2, HA tag at the C terminus) (mouse, UniProt Q8C3J5 505-1828)
T5 construct: Expressed in 293T cells; also called PcDNA DOCK2ΔN-HA

[6] = molecular target: T6, full length DOCK2 with HA tag at the C terminus (PcDNA DOCK2-HA) (mouse, UniProt Q8C3J5 1-1828)
T6 construct: Expressed in 293T cells from PcDNA/His max vector and tested in cell lysate by co-immunoprecipitation; also called Hch; mouse DOCK2
T6 sequence (Q8C3J5 other isoform, or with tags, fused parts or gaps limits assumed): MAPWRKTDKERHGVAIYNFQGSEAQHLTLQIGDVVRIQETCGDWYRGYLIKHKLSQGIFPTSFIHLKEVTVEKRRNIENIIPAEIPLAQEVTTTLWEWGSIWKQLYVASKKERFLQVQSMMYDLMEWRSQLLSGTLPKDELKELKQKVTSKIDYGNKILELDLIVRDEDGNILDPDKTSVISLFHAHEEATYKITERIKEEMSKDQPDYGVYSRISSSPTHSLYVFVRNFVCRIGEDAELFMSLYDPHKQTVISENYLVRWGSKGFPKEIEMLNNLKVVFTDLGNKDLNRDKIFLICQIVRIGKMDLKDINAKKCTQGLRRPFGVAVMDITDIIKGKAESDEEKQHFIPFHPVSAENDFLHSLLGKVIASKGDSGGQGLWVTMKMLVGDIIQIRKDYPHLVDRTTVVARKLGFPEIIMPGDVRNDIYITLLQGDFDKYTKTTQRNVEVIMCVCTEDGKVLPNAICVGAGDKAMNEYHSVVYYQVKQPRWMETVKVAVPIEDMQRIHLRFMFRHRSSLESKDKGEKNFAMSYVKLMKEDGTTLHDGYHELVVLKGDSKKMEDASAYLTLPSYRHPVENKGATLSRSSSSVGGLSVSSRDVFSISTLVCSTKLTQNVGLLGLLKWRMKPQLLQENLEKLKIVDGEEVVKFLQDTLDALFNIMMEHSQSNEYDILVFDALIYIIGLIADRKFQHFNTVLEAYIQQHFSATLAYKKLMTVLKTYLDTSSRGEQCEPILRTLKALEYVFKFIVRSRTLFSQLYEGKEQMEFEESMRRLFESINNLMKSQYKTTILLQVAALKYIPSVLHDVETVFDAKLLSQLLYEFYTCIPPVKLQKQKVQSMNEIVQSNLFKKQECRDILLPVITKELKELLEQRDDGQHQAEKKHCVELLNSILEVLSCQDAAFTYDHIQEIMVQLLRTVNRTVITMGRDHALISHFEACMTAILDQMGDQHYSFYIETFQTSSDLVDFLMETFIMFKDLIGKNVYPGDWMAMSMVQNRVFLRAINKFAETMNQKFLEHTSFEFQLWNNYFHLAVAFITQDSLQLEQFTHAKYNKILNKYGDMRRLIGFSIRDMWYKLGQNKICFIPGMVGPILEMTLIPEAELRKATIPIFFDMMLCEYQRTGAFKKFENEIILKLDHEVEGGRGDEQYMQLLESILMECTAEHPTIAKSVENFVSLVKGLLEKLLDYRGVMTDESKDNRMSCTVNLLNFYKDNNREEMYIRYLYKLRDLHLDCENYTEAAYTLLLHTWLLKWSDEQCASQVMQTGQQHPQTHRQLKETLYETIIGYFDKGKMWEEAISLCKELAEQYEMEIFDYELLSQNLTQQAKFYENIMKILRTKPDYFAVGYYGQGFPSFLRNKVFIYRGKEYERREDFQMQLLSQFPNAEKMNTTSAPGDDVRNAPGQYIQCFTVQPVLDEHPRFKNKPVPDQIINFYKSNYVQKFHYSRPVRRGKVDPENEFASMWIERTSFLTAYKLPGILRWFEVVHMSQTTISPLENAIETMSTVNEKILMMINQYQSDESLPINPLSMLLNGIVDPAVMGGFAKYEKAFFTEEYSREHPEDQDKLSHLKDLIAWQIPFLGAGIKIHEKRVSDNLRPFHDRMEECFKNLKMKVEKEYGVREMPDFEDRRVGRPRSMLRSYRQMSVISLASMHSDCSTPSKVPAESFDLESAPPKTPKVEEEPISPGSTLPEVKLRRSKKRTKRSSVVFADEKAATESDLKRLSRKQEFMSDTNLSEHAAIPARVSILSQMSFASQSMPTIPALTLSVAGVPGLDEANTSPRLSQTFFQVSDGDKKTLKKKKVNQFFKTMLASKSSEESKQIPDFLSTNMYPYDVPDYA

T1 sequence (Q60610 other isoform, or with tags, fused parts or gaps limits assumed): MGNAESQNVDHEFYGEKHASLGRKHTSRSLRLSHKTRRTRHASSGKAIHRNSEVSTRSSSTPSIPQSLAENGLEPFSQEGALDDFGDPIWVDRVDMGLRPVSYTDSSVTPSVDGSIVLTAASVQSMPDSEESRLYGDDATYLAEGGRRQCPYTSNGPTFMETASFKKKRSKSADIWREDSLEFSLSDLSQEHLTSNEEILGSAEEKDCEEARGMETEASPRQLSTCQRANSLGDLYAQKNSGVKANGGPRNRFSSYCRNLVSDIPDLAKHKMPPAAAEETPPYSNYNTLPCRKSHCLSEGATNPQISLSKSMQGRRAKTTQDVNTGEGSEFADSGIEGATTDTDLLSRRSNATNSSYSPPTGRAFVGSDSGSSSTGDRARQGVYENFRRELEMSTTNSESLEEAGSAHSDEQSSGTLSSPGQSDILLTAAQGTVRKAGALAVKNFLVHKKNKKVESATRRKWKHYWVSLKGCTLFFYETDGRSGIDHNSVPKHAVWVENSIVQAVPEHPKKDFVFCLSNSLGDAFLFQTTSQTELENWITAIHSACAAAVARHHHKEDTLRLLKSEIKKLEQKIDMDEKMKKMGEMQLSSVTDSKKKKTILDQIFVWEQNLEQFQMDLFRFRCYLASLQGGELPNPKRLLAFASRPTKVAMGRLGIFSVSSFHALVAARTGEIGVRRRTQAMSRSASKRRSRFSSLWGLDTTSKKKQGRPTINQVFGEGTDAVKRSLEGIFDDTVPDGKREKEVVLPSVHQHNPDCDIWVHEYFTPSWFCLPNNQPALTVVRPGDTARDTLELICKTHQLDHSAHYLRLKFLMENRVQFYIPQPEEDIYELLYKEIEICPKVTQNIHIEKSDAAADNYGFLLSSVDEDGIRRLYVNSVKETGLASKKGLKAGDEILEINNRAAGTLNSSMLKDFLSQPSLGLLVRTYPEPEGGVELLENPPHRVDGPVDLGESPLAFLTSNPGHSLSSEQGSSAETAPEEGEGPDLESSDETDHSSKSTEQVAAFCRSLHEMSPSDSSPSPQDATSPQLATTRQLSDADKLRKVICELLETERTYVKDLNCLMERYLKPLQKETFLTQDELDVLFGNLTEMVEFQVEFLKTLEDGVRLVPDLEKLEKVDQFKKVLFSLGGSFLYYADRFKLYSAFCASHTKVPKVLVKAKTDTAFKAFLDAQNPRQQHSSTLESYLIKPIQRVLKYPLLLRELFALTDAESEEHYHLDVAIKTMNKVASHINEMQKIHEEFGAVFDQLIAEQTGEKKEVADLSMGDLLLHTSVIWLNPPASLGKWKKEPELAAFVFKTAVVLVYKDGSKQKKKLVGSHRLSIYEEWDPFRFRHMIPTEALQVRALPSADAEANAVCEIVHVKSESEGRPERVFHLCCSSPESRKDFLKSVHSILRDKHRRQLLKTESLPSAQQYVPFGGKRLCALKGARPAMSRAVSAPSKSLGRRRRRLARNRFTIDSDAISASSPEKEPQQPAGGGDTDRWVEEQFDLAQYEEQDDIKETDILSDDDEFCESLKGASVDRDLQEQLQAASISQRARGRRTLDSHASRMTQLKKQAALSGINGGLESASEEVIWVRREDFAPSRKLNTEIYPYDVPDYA
T2 sequence (Q8C3J5 other isoform, or with tags, fused parts or gaps F63E F63E limits assumed): as the sequence (Q8C3J5 other isoform, or with tags, fused parts or gaps limits assumed) above, with F63E counted along it
T3 sequence (Q8C3J5 other isoform, or with tags, fused parts or gaps P60E P60E limits assumed): as the sequence (Q8C3J5 other isoform, or with tags, fused parts or gaps limits assumed) above, with P60E counted along it
T4 sequence (Q8C3J5 other isoform, or with tags, fused parts or gaps G32E G32E limits assumed): as the sequence (Q8C3J5 other isoform, or with tags, fused parts or gaps limits assumed) above, with G32E counted along it
T5 sequence (Q8C3J5 other isoform, or with tags, fused parts or gaps mutant): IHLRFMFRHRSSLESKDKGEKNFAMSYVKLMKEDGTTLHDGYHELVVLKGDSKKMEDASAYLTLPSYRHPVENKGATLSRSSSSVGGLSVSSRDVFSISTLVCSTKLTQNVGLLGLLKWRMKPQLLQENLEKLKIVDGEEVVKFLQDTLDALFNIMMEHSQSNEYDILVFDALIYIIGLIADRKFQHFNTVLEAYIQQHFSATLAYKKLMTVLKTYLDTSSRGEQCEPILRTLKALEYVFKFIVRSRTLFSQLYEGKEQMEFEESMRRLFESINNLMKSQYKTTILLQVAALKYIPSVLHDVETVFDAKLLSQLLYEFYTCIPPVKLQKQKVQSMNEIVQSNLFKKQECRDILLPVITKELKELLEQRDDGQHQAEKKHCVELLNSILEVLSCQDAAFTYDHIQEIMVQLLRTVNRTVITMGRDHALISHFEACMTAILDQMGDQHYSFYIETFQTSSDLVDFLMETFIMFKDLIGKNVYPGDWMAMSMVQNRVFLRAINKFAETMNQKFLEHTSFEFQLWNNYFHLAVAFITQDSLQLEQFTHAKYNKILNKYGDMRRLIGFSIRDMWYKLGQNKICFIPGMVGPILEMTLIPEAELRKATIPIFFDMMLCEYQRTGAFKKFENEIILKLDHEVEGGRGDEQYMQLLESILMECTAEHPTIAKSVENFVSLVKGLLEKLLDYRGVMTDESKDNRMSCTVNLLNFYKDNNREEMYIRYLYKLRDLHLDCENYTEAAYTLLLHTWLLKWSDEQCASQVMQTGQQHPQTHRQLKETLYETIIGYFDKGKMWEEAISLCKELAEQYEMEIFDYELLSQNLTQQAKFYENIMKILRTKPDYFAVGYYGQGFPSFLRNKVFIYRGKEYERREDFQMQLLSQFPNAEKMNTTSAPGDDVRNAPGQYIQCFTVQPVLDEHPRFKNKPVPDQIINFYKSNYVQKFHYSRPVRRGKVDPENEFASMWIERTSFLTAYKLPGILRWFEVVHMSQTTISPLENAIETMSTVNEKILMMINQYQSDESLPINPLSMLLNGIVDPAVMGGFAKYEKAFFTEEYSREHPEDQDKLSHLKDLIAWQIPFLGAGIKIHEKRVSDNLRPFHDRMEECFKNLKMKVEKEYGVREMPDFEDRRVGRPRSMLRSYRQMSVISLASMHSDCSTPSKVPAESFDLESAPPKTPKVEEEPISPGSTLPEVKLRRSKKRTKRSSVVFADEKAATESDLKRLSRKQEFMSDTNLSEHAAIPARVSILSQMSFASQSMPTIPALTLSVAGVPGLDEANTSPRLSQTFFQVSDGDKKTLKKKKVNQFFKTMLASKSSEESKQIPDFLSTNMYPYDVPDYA

B1: ELMO1-del8-V5 (amino acid residues 345-727 of ELMO1) (other)
chain: MEKRKSMYTRDYKKLGFINHVNPAMDFTQTPPGMLALDNMLYFAKHHQDAYIRIVLENSSREDKHECPFGRSSIELTKMLCEILKVGELPSETCNDFHPMFFTHDRSFEEFFCICIQLLNKTWKEMRATSEDFNKVMQVVKEQVMRALTTKPSSLDQFKSKLQNLSYTEILKIRQSERMNQEDFQSRPILELKEKIQPEILELIKQQRLNRLVEGTCFRKLNARRRQDKFWYCRLSPNHKVLHYGDLEESPQGEVPHDSLQDKLPVADIKAVVTGKDCPHMKEKGALKQNKEVLELAFSILYDSNCQLNFIAPDKHEYCIWTDGLNALLGKDMMSDLTRNDLDTLLSMEIKLRLLDLENIQIPDAPPPIPKEPSNYDFVYDCN
notes: Expressed in 293T cells; also called PcDNA ELMO1-del8-V5; not shown: V5 (and His) tag from the PcDNA V5His vector
B1: no binding [1].

B2: full length ELMO1 with V5 tag (PcDNA ELMO1-V5) (other)
chain: MPPPSDIVKVAIEWPGAYPKLMEIDQKKPLSAIIKEVCDGWSLANHEYFALQHADSSNFYITEKNRNEIKNGTILRLTTSPAQNAQQLHERIQSSSMDAKLEALKDLASLSRDVTFAQEFINLDGISLLTQMVESGTERYQKLQKIMKPCFGDMLSFTLTAFVELMDHGIVSWDTFSVAFIKKIASFVNKSAIDISILQRSLAILESMVLNSHDLYQKVAQEITIGQLIPHLQGTDQEIQTYTIAVINALFLKAPDERRQEMANILAQKQLRYIILTHVIRAQRAINNEMAHQLYVLQVLTFNLLEDRMMTKMDPQDQAQRDIIFELRRIAFDAESEPNNSSGSMEKRKSMYTRDYKKLGFINHVNPAMDFTQTPPGMLALDNMLYFAKHHQDAYIRIVLENSSREDKHECPFGRSSIELTKMLCEILKVGELPSETCNDFHPMFFTHDRSFEEFFCICIQLLNKTWKEMRATSEDFNKVMQVVKEQVMRALTTKPSSLDQFKSKLQNLSYTEILKIRQSERMNQEDFQSRPILELKEKIQPEILELIKQQRLNRLVEGTCFRKLNARRRQDKFWYCRLSPNHKVLHYGDLEESPQGEVPHDSLQDKLPVADIKAVVTGKDCPHMKEKGALKQNKEVLELAFSILYDSNCQLNFIAPDKHEYCIWTDGLNALLGKDMMSDLTRNDLDTLLSMEIKLRLLDLENIQIPDAPPPIPKEPSNYDFVYDCN
notes: Expressed in 293T cells; also called mouse ELMO1; not shown: V5 (and His) tag from the PcDNA V5-His vector
B2: no binding [2]; no binding [3]; no binding [4]. B2: no binding [5].

B3: ELMO1-del10-V5 (amino acid residues 1-613 of ELMO1) (other)
chain: MPPPSDIVKVAIEWPGAYPKLMEIDQKKPLSAIIKEVCDGWSLANHEYFALQHADSSNFYITEKNRNEIKNGTILRLTTSPAQNAQQLHERIQSSSMDAKLEALKDLASLSRDVTFAQEFINLDGISLLTQMVESGTERYQKLQKIMKPCFGDMLSFTLTAFVELMDHGIVSWDTFSVAFIKKIASFVNKSAIDISILQRSLAILESMVLNSHDLYQKVAQEITIGQLIPHLQGTDQEIQTYTIAVINALFLKAPDERRQEMANILAQKQLRYIILTHVIRAQRAINNEMAHQLYVLQVLTFNLLEDRMMTKMDPQDQAQRDIIFELRRIAFDAESEPNNSSGSMEKRKSMYTRDYKKLGFINHVNPAMDFTQTPPGMLALDNMLYFAKHHQDAYIRIVLENSSREDKHECPFGRSSIELTKMLCEILKVGELPSETCNDFHPMFFTHDRSFEEFFCICIQLLNKTWKEMRATSEDFNKVMQVVKEQVMRALTTKPSSLDQFKSKLQNLSYTEILKIRQSERMNQEDFQSRPILELKEKIQPEILELIKQQRLNRLVEGTCFRKLNARRRQDKFWYCRLSPNHKVLHYGDLEESPQGEVPHDSLQDKLPVADI
notes: Expressed in 293T cells; also called PcDNA ELMO1-del10-V5; PcDNA ELMO1-del10; not shown: V5 (and His) tag from the PcDNA V5His vector
B3: no binding [6].

B4: ELMO1-del1-V5 (amino acid residues 147-727 of ELMO1) (other)
chain: MKPCFGDMLSFTLTAFVELMDHGIVSWDTFSVAFIKKIASFVNKSAIDISILQRSLAILESMVLNSHDLYQKVAQEITIGQLIPHLQGTDQEIQTYTIAVINALFLKAPDERRQEMANILAQKQLRYIILTHVIRAQRAINNEMAHQLYVLQVLTFNLLEDRMMTKMDPQDQAQRDIIFELRRIAFDAESEPNNSSGSMEKRKSMYTRDYKKLGFINHVNPAMDFTQTPPGMLALDNMLYFAKHHQDAYIRIVLENSSREDKHECPFGRSSIELTKMLCEILKVGELPSETCNDFHPMFFTHDRSFEEFFCICIQLLNKTWKEMRATSEDFNKVMQVVKEQVMRALTTKPSSLDQFKSKLQNLSYTEILKIRQSERMNQEDFQSRPILELKEKIQPEILELIKQQRLNRLVEGTCFRKLNARRRQDKFWYCRLSPNHKVLHYGDLEESPQGEVPHDSLQDKLPVADIKAVVTGKDCPHMKEKGALKQNKEVLELAFSILYDSNCQLNFIAPDKHEYCIWTDGLNALLGKDMMSDLTRNDLDTLLSMEIKLRLLDLENIQIPDAPPPIPKEPSNYDFVYDCN
notes: Expressed in 293T cells; also called ELMO1-dell; PcDNA ELMO1-del1-V5; not shown: V5 (and His) tag from the PcDNA V5His vector
B4: no binding [1].
